# Measurements published in patent publication US20220174981A1, “PROLINE TOLERANT TRIPEPTIDYL PEPTIDASES AND USES THEREOF” (DuPont Nutrition Biosciences APS, priority 2014, published 2022).
# Substitutions are numbered along the chain they refer to.
# B1: PepN: recombinantly in E. coli expressed and His-tag purified general aminopeptidase (PepN) from Lactobacillus helveticus ATCC 12046 (protein, UniProt Q10730 1-844, looked up)
# Aminopeptidase N: MAVKRFYKTFHPEHYDLRINVNRKNKTINGTSTITGDVFENPVLINQKFMTIDSVKVDGKNVDFDVIEKDEAIKIKTGVTGKAVIEIAYSAPLTDTMMGIYPSYYELEGKKKQIIGTQFETTFARQAFPCVDEPEAKATFSLALKWDEQDGEVALANMPEVEVDKDGYHHFEETVRMSSYLVAFAFGELQSKTTHTKDGVLIGVYATKAHKPKELDFALDIAKRAIEFYEEFYQTKYPLPQSLQLALPDFSAGAMENWGLVTYREAYLLLDPDNTSLEMKKLVATVITHELAHQWFGDLVTMKWWDNLWLNESFANMMEYLSVDGLEPDWHIWEMFQTSEASSALNRDATDGVQPIQMEINDPADIDSVFDSAIVYAKGSRMLVMVRSLLGDDALRKGLKYYFDHHKFGNATGDDLWDALSTATDLDIGKIMHSWLKQPGYPVVNAFVAEDGHLKLTQKQFFIGEGEDKGRQWQIPLNANFDAPKIMSDKEIDLGSYKVLREEAGHPLRLNVGNNSHFIVEYDKTLHDDILSDVNELDPIDKLQLLQDLRLLAEGKQISYASIVPLLVKFADSKSSLVINALYTTAAKLRQFVEPESNEEKNLKKLYDLLSKDQVARLGWEVKPGESDEDVQIRPYELSASLYAENADSIKAAHQIFTENEDNLEALNADIRPYVLINEVKNFGNAELVDKLIKEYQRTADPSYKVDLRSAVTSTKDLAAIKAIVGDFENADVVKPQDLCDWYRGLLANHYGQQAAWDWIREDWDWLDKTVGGDMEFAKFITVTAGVFHTPERLKEFKEFFEPKINVPLLSREIKMDVKVIESKVNLIEAEKDAVNDAVAKAID
# modifications: His-tag
# Key:
# azocasein = assay: Azocasein assay for endoprotease activity; format: biochemical; settings: PepN applied in WPI hydrolysis
# Protocol: (§1) A modified version of the endoprotease assay described by Iversen and Jørgensen, 1995 (Biotechnology Techniques 9, 573-576) is used. An enzyme sample of 50 μl is added to 250 μl of azocasein (0.25% w/v; from Sigma) in 4 times diluted McIlvaine buffer, pH 5 and incubated for 15 min at 40° C. with shaking (800 rpm). The reaction is terminated by adding 50 μl of 2 M trichloroacetic acid (TCA) (from Sigma Aldrich, Denmark) and centrifugation for 5 min at 20,000 g. To a 195 μl sample of the supernatant 65 μl of 1 M NaOH is added and absorbance at 450 nm is measured. One unit of endoprotease activity is defined as the amount which yields an increase in absorbance of 0.1 in 15 min at 40° C. at 450 nm.
# as §1, with “Jorgensen,” for “Jørgensen,”, “1995” for “1995 (Biotechnology Techniques 9, 573-576)”, “TCA” for “trichloroacetic acid (TCA) (from Sigma Aldrich, Denmark)”, “C.” for “C. at 450 nm.”
# Endopeptidase side-activity was measured with the azocasein as described in Example 2.
# sodium caseinate = assay: 5% sodium caseinate hydrolysis with endopeptidase, TRI083 and PepN, serine equivalents; format: biochemical; settings: doubling of the PepN activity from 786 to 1572 nkat/mL
# H-Ala-Ala-Ala-OH = assay: Pre-hydrolysis of H-Ala-Ala-Ala-OH by PepN, gas chromatography; format: biochemical; settings: 24 h, 40° C., pH 4.0
# Protocol: The inhibition experiments were set up as described in Example 14. Furthermore, 1 mg/mL H-Ala-Ala-Ala-OH (Bachem, Switzerland) was subjected to general aminopeptidase (PepN) hydrolysis for 24 h at 40° C. in 12.5 times diluted McIlvaine buffer (pH 4.0). For this, […] H-Ala-Ala-Ala-OH was dissolved in 8 mL 10 times diluted McIlvaine buffer (pH 4.0) and filled up to 10 mL with purified PepN (1,572 nkat/mL [pH 6.5]). After 24 h of hydrolysis, the PepN hydrolysis was terminated by heat inactivation of the PepN (90° C.; 10 min). The degree of pre-hydrolysis of H-Ala-Ala-Ala-OH was determined by gas chromatography (Husek, 1991; FEBS-Letters 280, 354-356). About 0.18 mg/mL alanine was measured, which corresponds to about 54% hydrolyses of the initially applied H-Ala-Ala-Ala-OH.
# [1] = tested on: whey protein isolate (WPI); assay: 15% WPI hydrolysis at pH 6, 50° C. with endopeptidases, TRI079 and PepN; format: biochemical; settings: 24 h
# Protocol: For WPI hydrolysis, Lacprodan-9224 (Arla Food Ingredients, Denmark) was employed, a 15% (w/w) WPI suspension was prepared in H2Od and adjusted to pH 6 with sodium hydroxide. To prevent microbial growth, 0.0285% (w/w) NaN3 was added. Subsequently, 0.5% (w/w on protein substrate) Food Pro® Alkaline Protease and 0.5% (w/w on protein substrate) Food Pro® PNL was added and a volume of 200 μl of the WPI suspension was transferred into each of the 96 wells of a microtiter plate (MTP; VWR, Denmark). Following this, 5 μl of the proline tolerant tripeptidyl peptidase TRI079 containing either 0 or 2188 nkat/mL and 5 ul of PepN (described in EXAMPLE 10) containing either 0, 197 or 393 nkat/mL were added to the particular wells of the MTP. Then, the MTP was sealed and placed in an incubator at 50° C. (iEMS incubator/shaker HT, Thermo Scientific, Denmark).
# After 24 h of incubation and shaking at 400 rpm, the hydrolysis was stopped by addition of 20 μl of 2 M trichloroacetic acid (TCA; Sigma-Aldrich, Denmark), except for the reference (0 h) to which the TCA was added prior to endo- and exopeptidase addition. […] The measured absorptions at 340 nm in a MTP reader (VersaMax, Molecular Devices, Denmark) were transformed into serine equivalents employing a serine calibration curve (0-2 mM).
# H-Ala-Pro-pNA = target: T1, H-Ala-Pro-pNA (Lactobacillus helveticus, UniProt Q10730); assay: X-prolyl-dipeptidyl (PepX) side-activity; format: biochemical; settings: PepN applied in WPI hydrolysis
# T1 construct: His-tag; made in house; host or cells: E. coli
# T1 sequence (Q10730 1-844 F39I/L44F/S342A/S372G/S496N/T525I/H527L): B1 Aminopeptidase N with F39I, L44F, S342A, S372G, S496N, T525I, H527L
# [2] = general aminopeptidase (Pep N) of the named origin; cited from earlier work
molecule,measurement,setting,value
B1,endopeptidase side-activity,azocasein,free of endopeptidase
same,increase of serine equivalents,sodium caseinate,10 mM
same,alanine measured,H-Ala-Ala-Ala-OH; 1 mg/mL H-Ala-Ala-Ala-OH,About 0.18 mg/mL
same,hydrolyses of the initially applied H-Ala-Ala-Ala-OH,H-Ala-Ala-Ala-OH,about 54%
same,DH (in %) of WPI hydrolysate,"[1]; PepN 197, TRI 079 0 nkat/mL",18.2%
same,DH (in %) of WPI hydrolysate,"[1]; PepN 393, TRI 079 0 nkat/mL",18.8%
same,X-prolyl-dipeptidyl (PepX) side-activity,H-Ala-Pro-pNA,free of
same,Substrate Specificity,[2],"Ala, Lys, Arg, Leu, Phe, Val, Ile, and Pro"
same,pH-optimum,[2],6.5
same,temp.-range,[2],10-50 C.
